Consider one molecule from doi:10.1101/2022.07.18.499583.

The data set addresses NSP1 (SARS-CoV-2, UniProt P0DTD1 1-180). In words: BLI.

In turn, AACCAACUUUCGAUCUCUUGUAGAUCUGUUCU (structured_RNA) [SL2 (unmodified)] registered a Kd of 300 ± 54 nM.
